The text below walks through data of PMC10783490, “Biochemical and cellular insights into the Baz2B protein, a non-catalytic subunit of the chromatin remodeling complex” (Nucleic Acids Research, 2023).

Holding throughout (assay): MST; 100 nM fluorescently labelled (RED-NHS) BRD^Baz2B, peptide (H3 or H3K14ac) titrated; MST buffer 150 mM Tris-HCl, 50 mM NaCl, 10 mM MgCl2, pH 7.6, 0.0025% Pluronic, 200 ng/ul BSA; 25 C, 20% MST power; at least triplicate
What all share (conditions): both partners purified

For one test, the target named is T1, BRD^Baz2B D2143N (human, UniProt Q9UIF8 2054-2168, D2143N, fluorescent label (Monolith NT Protein Labelling Kit RED-NHS)).
T1 construct: bromodomain (BRD) of human Baz2B with a cancer-associated point mutation, made on pNIC28-Bsa4-BAZ2B-BRD; Same limits as m1; mutation found in breast invasive carcinoma; source: E. coli BL21(DE3)-R3-pRARE2, purified (Ni-NTA, Sephadex 75)
T1 sequence: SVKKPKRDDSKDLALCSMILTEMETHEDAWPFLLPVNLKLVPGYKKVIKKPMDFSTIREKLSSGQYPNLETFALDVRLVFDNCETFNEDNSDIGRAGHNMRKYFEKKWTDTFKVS

The next test deals with T2, BRD^Baz2B K2098N (human, UniProt Q9UIF8 2054-2168, K2098N, fluorescent label (Monolith NT Protein Labelling Kit RED-NHS)).
T2 construct: bromodomain (BRD) of human Baz2B with a cancer-associated point mutation, made on pNIC28-Bsa4-BAZ2B-BRD; Same limits as m1; mutation found in multiple myeloma; source: E. coli BL21(DE3)-R3-pRARE2, purified (Ni-NTA, Sephadex 75)
T2 sequence: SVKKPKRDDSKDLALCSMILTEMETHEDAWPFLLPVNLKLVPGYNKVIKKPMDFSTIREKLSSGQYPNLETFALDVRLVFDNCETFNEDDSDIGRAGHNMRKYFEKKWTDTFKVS

For a further test, the target named is T3, BRD^Baz2B L2127V (human, UniProt Q9UIF8 2054-2168, L2127V, fluorescent label (Monolith NT Protein Labelling Kit RED-NHS)).
T3 construct: bromodomain (BRD) of human Baz2B with a cancer-associated point mutation, made on pNIC28-Bsa4-BAZ2B-BRD; Same limits as m1; mutation found in breast cancer; source: E. coli BL21(DE3)-R3-pRARE2, purified (Ni-NTA, Sephadex 75)
T3 sequence: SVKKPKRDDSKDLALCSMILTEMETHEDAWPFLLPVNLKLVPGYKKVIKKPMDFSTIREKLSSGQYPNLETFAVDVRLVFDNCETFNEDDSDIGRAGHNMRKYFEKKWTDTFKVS

A further test has as its target T4, BRD^Baz2B L2073V (human, UniProt Q9UIF8 2054-2168, L2073V, fluorescent label (Monolith NT Protein Labelling Kit RED-NHS)).
T4 construct: bromodomain (BRD) of human Baz2B with a cancer-associated point mutation, made on pNIC28-Bsa4-BAZ2B-BRD; Same limits as m1; mutation found in pancreatic cancer (COSMIC/ICGC); source: E. coli BL21(DE3)-R3-pRARE2, purified (Ni-NTA, Sephadex 75)
T4 sequence: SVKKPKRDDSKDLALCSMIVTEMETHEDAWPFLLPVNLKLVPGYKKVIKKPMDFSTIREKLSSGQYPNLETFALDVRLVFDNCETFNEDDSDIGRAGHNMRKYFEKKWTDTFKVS

In test [1] the target is T5, His6-BRD^Baz2B (bromodomain of human Baz2B, wild-type) (human, UniProt Q9UIF8 2054-2168, fluorescent label (Monolith NT Protein Labelling Kit RED-NHS)).
T5 construct: bromodomain (BRD) of human Baz2B, from plasmid pNIC28-Bsa4-BAZ2B-BRD; also called BAZ2B-BRD; source: E. coli BL21(DE3)-R3-pRARE2, purified (Ni-NTA, Sephadex 75)
T5 sequence: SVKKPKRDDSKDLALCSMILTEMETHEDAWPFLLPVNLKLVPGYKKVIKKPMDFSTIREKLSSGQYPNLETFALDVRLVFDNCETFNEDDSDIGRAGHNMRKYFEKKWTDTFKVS

In the next test the target is T6, BRD^Baz2B F2139C (human, UniProt Q9UIF8 2054-2168, F2139C, fluorescent label (Monolith NT Protein Labelling Kit RED-NHS)).
T6 construct: bromodomain (BRD) of human Baz2B with a cancer-associated point mutation, made on pNIC28-Bsa4-BAZ2B-BRD; Same limits as m1; mutation found in endometrial cancer; source: E. coli BL21(DE3)-R3-pRARE2, purified (Ni-NTA, Sephadex 75)
T6 sequence: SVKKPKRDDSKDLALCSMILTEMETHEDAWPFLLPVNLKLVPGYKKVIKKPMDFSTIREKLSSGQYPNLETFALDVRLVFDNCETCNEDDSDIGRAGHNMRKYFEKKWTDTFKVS

The target of another test is T7, BRD^Baz2B T2138I (human, UniProt Q9UIF8 2054-2168, T2138I, fluorescent label (Monolith NT Protein Labelling Kit RED-NHS)).
T7 construct: bromodomain (BRD) of human Baz2B with a cancer-associated point mutation, made on pNIC28-Bsa4-BAZ2B-BRD; Same limits as m1; mutation found in multiple myeloma; source: E. coli BL21(DE3)-R3-pRARE2, purified (Ni-NTA, Sephadex 75)
T7 sequence: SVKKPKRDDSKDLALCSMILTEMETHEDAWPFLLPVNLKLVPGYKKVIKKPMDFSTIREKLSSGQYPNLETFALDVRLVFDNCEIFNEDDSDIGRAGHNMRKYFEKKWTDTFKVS

The target of test [2] is T5, His6-BRD^Baz2B (bromodomain of human …). This is another data set of the same source.

B1: H3 peptide (Ac-TARKSTGGKAPRKQL-NH2) (peptide)
peptide: Ac-TARKSTGGKAPRKQL-NH2
notes: N-terminal tail of histone H3, residues 6-20; also called unmodified H3 peptide; unmodified H3K14 tail peptide; source: synthetic peptide, bought: alta Bioscience
A word on the Kd: it is the free concentration of one partner at which half of the binding sites on the other are occupied at equilibrium, for simple one-to-one binding. Low readings indicate tighter binding, high ones weaker binding. Take B1: the Kd with BRD^Baz2B D2143N was 42 µM; with BRD^Baz2B K2098N, 8 µM; with BRD^Baz2B L2127V, 1.7 µM; with BRD^Baz2B L2073V, 7 µM; in test [1], above 288 µM; with BRD^Baz2B F2139C, above 798 µM. The Kd worked out at 211 µM in the test with BRD^Baz2B T2138I and 288 µM in test [2].
